The values that follow are results of earlier work, collected in patent US20250326839A1, “TREATMENT OF DISEASES RELATED TO COLONY-STIMULATING FACTOR 1 RECEPTOR DYSFUNCTION USING TREM2 AGONISTS” (Vigil Neuroscience, Inc., priority 2020, published 2025).

In this data set the target is T1, TREM2 (Homo sapiens, UniProt Q9NZC2).
T1 sequence (Q9NZC2 19-230): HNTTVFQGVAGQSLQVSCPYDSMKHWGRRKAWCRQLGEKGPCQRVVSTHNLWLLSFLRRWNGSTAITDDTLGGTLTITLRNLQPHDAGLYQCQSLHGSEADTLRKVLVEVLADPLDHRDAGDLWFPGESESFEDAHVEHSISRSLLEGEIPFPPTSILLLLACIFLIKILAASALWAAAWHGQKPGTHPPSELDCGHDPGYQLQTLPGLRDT
The conditions noted are these: cited from earlier work; for Binding Signal (fold over 6E7 parental antibody) 1st screen 110 nM or 10 nM: 10 nM Ab concentration (values not marked *).

Numbering of substitutions follows the chain as printed. Names and notes keep the numbering of the source.

B1: V61: 6E7 variant: VH T30S, S61N, Q99G; VL Q55V, F94L (antibody, V domains shown)
VH: EVQLVQSGAEVKKPGESLKISCKGSGYSFSSYWIAWVRQMPGKGLEWMGIIYPGDSDTRYNPSFQGQVTISADKSISTAYLQWSSLKASDTAMYFCARGRTFYYDSSDYFDYWGQGTLVTVSS
VL: DIQMTQSPSSVSASVGDRVTITCRASQGISSWLAWYQQKPGKAPKLLIYAASSLVNGVPSRFSGSGSGTDFTLTISSLQPEDFATYFCQQADSLPRTFGQGTKLEIK
As to B1, the “Binding Signal (fold over 6E7 parental antibody) 1st screen 110 nM or 10 nM” value is recorded as 5.08 fold over 6E7 parental antibod, the “Binding Signal (fold over 6E7 parental antibody) 2nd screen 2 nM” value is reported as 3.63 fold over 6E7 parental antibod and the “Binding Signal (fold over 6E7 parental antibody) 2nd screen 10 nM” value is listed as 5.22 fold over 6E7 parental antibod.

B2: V85: 6E7 variant: VH T30R, I50T, Q99S; VL L54R (antibody, V domains shown)
VH: B1 VH with S30R, I50T, N61S, G99S
VL: B1 VL with L54R, V55Q, L94F
In the case of B2, the “Binding Signal (fold over 6E7 parental antibody) 1st screen 110 nM or 10 nM” value was 5.41 fold over 6E7 parental antibod, the “Binding Signal (fold over 6E7 parental antibody) 2nd screen 2 nM” value is listed as 5.41 fold over 6E7 parental antibod and the “Binding Signal (fold over 6E7 parental antibody) 2nd screen 10 nM” value was 5.37 fold over 6E7 parental antibod.

B3: V63: 6E7 variant: VH T30R, Q99S; VL N56R, S93R (antibody, V domains shown)
VH: B1 VH with S30R, N61S, G99S
VL: B1 VL with V55Q, N56R, S93R, L94F
B3: the “Binding Signal (fold over 6E7 parental antibody) 1st screen 110 nM or 10 nM” value is on record as 3.76 fold over 6E7 parental antibod, the “Binding Signal (fold over 6E7 parental antibody) 2nd screen 2 nM” value was 4.91 fold over 6E7 parental antibod and the “Binding Signal (fold over 6E7 parental antibody) 2nd screen 10 nM” value is on record as 3.71 fold over 6E7 parental antibod.

B4: V73: 6E7 variant: VH T30G, S63G, Q99G; VL L54R, F94Y (antibody, V domains shown)
VH: B1 VH with S30G, N61S, S63G
VL: B1 VL with L54R, V55Q, L94Y
B4: the “Binding Signal (fold over 6E7 parental antibody) 1st screen 110 nM or 10 nM” value is 5.12 fold over 6E7 parental antibod, the “Binding Signal (fold over 6E7 parental antibody) 2nd screen 2 nM” value is on record as 4.17 fold over 6E7 parental antibod and the “Binding Signal (fold over 6E7 parental antibody) 2nd screen 10 nM” value is given as 5.44 fold over 6E7 parental antibod.

B5: V62: 6E7 variant: VH T30G, S61A, D108G; VL N56R, Q89G (antibody, V domains shown)
VH: B1 VH with S30G, N61A, G99Q, D108G
VL: B1 VL with V55Q, N56R, Q89G, L94F
For B5, the “Binding Signal (fold over 6E7 parental antibody) 1st screen 110 nM or 10 nM” value is reported as 2.49 fold over 6E7 parental antibod, the “Binding Signal (fold over 6E7 parental antibody) 2nd screen 2 nM” value is given as 1.87 fold over 6E7 parental antibod and the “Binding Signal (fold over 6E7 parental antibody) 2nd screen 10 nM” value is reported as 2.89 fold over 6E7 parental antibod.

B6: V86: 6E7 variant: VH T30G, I34L, Q65E, Q99S; VL L54R (antibody, V domains shown)
VH: B1 VH with S30G, I34L, N61S, Q65E, G99S
VL: B1 VL with L54R, V55Q, L94F
Turning to B6, the “Binding Signal (fold over 6E7 parental antibody) 1st screen 110 nM or 10 nM” value is 4.80 fold over 6E7 parental antibod, the “Binding Signal (fold over 6E7 parental antibody) 2nd screen 2 nM” value is listed as 5.17 fold over 6E7 parental antibod and the “Binding Signal (fold over 6E7 parental antibody) 2nd screen 10 nM” value was 5.02 fold over 6E7 parental antibod.

B7: V84: 6E7 variant: VH S28G, F110S; VL A50G (antibody, V domains shown)
VH: B1 VH with S28G, S30T, N61S, G99Q, F110S
VL: B1 VL with A50G, V55Q, L94F
Turning to B7, the “Binding Signal (fold over 6E7 parental antibody) 1st screen 110 nM or 10 nM” value is 1.44 fold over 6E7 parental antibod, the “Binding Signal (fold over 6E7 parental antibody) 2nd screen 2 nM” value was 1.45 fold over 6E7 parental antibod and the “Binding Signal (fold over 6E7 parental antibody) 2nd screen 10 nM” value is 1.62 fold over 6E7 parental antibod.

B8: V72: 6E7 variant: VH A35G, Q99G; VL Q55V, F94Y (antibody, V domains shown)
VH: B1 VH with S30T, A35G, N61S
VL: B1 VL with L94Y
For B8, the “Binding Signal (fold over 6E7 parental antibody) 1st screen 110 nM or 10 nM” value is reported as 3.64 fold over 6E7 parental antibod, the “Binding Signal (fold over 6E7 parental antibody) 2nd screen 2 nM” value is listed as 2.50 fold over 6E7 parental antibod and the “Binding Signal (fold over 6E7 parental antibody) 2nd screen 10 nM” value is reported as 4.01 fold over 6E7 parental antibod.

B9: V76: 6E7 variant: VH T30G, S63E, F110S; VL N56K (antibody, V domains shown)
VH: B1 VH with S30G, N61S, S63E, G99Q, F110S
VL: B1 VL with V55Q, N56K, T69R, L94F
For the molecule B9, the “Binding Signal (fold over 6E7 parental antibody) 1st screen 110 nM or 10 nM” value was 4.57 fold over 6E7 parental antibod, the “Binding Signal (fold over 6E7 parental antibody) 2nd screen 2 nM” value is 4.34 fold over 6E7 parental antibod and the “Binding Signal (fold over 6E7 parental antibody) 2nd screen 10 nM” value is reported as 4.93 fold over 6E7 parental antibod.

B10: V75: 6E7 variant: VH Q99G; VL N56A, F94Y (antibody, V domains shown)
VH: B1 VH with S30T, N61S
VL: B1 VL with V55Q, N56A, L94Y
For the molecule B10, the “Binding Signal (fold over 6E7 parental antibody) 1st screen 110 nM or 10 nM” value is reported as 4.64 fold over 6E7 parental antibod, the “Binding Signal (fold over 6E7 parental antibody) 2nd screen 2 nM” value is 3.74 fold over 6E7 parental antibod and the “Binding Signal (fold over 6E7 parental antibody) 2nd screen 10 nM” value is on record as 4.52 fold over 6E7 parental antibod.

B11: V74: 6E7 variant: VH T30A, T58V, Q99G; VL N56L (antibody, V domains shown)
VH: B1 VH with S30A, T58V, N61S
VL: B1 VL with V55Q, N56L, L94F
As to B11, the “Binding Signal (fold over 6E7 parental antibody) 1st screen 110 nM or 10 nM” value is recorded as 3.94 fold over 6E7 parental antibod, the “Binding Signal (fold over 6E7 parental antibody) 2nd screen 2 nM” value was 2.54 fold over 6E7 parental antibod and the “Binding Signal (fold over 6E7 parental antibody) 2nd screen 10 nM” value was 4.01 fold over 6E7 parental antibod.

B12: V64: 6E7 variant: VH T30Q, Q99G; VL Q55A, F94Y (antibody, V domains shown)
VH: B1 VH with S30Q, N61S
VL: B1 VL with V55A, L94Y
With B12, the “Binding Signal (fold over 6E7 parental antibody) 1st screen 110 nM or 10 nM” value was 5.41 fold over 6E7 parental antibod, the “Binding Signal (fold over 6E7 parental antibody) 2nd screen 2 nM” value is given as 4.88 fold over 6E7 parental antibod and the “Binding Signal (fold over 6E7 parental antibody) 2nd screen 10 nM” value was 5.48 fold over 6E7 parental antibod.
